Broadly, the Kd is the free concentration of one partner at which half of the binding sites on the other are occupied at equilibrium, for simple one-to-one binding. For orientation: koff means a measure of how fast the partners let go of each other. By kon is commonly meant a measure of how fast the partners come together. The EC50 is the concentration at which the effect is half-maximal.

Two molecules from patent US20250145697A1 (WASHINGTON UNIVERSITY, published 2025) can be followed below.

Test [1] addresses T1, recombinant alipidated human ApoE4 (human, UniProt P02649 19-317).
T1 construct: mature; full length recombinant protein made in E. coli or bought; biotinylated for SPR; position 112 is counted on the mature protein, not on the precursor entry; also called recApoE; non-lipidated ApoE4
The experiment in a line: SPR (Biacore T200), biotinylated ApoE4 captured on anti-biotin mAb chip, antibody injected, 1:1 fit. Here is the method:
The affinity of several anti-ApoE antibodies for ApoE4 was determined by surface plasmon resonance using a BIAcore T200. Anti-biotin monoclonal mouse antibody was immobilized on a Biacore Series S CM5 sensor chip. Biotinylated recombinant alipidated ApoE4 was then captured on to the chip. Serial dilutions of each antibody were injected at a flow rate of 30 μl/min. Each sample was analyzed, for example, with 3-minute association and 10-minute dissociation. After each injection the chip was regenerated using 3 M MgCl₂ or another appropriate buffer. Binding response was corrected by subtracting the response units (RUs) from a flow cell capturing an irrelevant IgG at similar density. A 1:1 Languir model of simultaneous fitting of Kₒₙ and Koff was used for kinetics analysis. Recombinant alipidated ApoE4 was either expressed in soluble form in E. coli and then purified, or purchased from a commercial supplier.

In test [2] the target is T2, ApoE4 amino acids 1-210, expressed on yeast (human, UniProt P02649 19-228).
T2 construct: with myc tag, on yeast cells; range counts on the mature protein; also called N terminal domain; not shown: myc tag and yeast surface-display partner
T2 chain: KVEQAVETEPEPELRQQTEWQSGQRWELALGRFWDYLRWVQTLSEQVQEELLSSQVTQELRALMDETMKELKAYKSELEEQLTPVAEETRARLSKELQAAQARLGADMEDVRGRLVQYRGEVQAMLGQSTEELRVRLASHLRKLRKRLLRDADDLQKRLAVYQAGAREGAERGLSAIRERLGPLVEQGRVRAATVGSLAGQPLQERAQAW
The test can be described thus: yeast display of myc-tagged ApoE4 fragment, antibody staining. Here is the method:
(§1) Epitope binding of various anti-ApoE antibodies was evaluated multiple ways. Different sequences of human ApoE were expressed on the surface of yeast by yeast display using different plasmids. Different anti-ApoE antibodies were then assessed to determine binding to the different ApoE sequences by immunofluorescence of the yeast cell surface (Table 4). Because none of the anti-ApoE antibodies tested here recognize murine ApoE, the epitope was further narrowed down by comparison of the murine and human ApoE sequences as shown in Tables 4 and 5. DNA constructs containing different regions of ApoE4 with myc tag were transformed into yeast cells. Yeast cells were incubated with HJ15x to detect binding or anti-myc antibody to detect expression.

The target in test [3] is T3, ApoE4 amino acids 24-125, expressed on yeast (human, UniProt P02649 42-143).
T3 construct: with myc tag, on yeast cells; range counts on the mature protein; also called helix1 + 2 + 3
T3 chain: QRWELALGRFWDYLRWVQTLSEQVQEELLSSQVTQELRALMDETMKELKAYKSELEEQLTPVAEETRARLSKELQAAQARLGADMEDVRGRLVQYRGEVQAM
The test is described as above. How it is done: as §1

Test [4] addresses T4, ApoE4 amino acids 1-132, expressed on yeast (human, UniProt P02649 19-150).
T4 construct: with myc tag, on yeast cells; range counts on the mature protein; also called up to helix 3; not shown: myc tag and yeast surface-display partner
T4 chain: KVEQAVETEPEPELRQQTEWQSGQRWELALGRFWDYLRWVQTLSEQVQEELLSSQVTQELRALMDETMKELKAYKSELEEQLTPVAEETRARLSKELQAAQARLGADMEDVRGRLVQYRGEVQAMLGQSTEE
Described as above. How it is done: as §1

The target in test [5] is T5, ApoE4 amino acids 1-164, expressed on yeast (human, UniProt P02649 19-182).
T5 construct: with myc tag, on yeast cells; range counts on the mature protein; also called up to helix 4; not shown: myc tag and yeast surface-display partner
T5 chain: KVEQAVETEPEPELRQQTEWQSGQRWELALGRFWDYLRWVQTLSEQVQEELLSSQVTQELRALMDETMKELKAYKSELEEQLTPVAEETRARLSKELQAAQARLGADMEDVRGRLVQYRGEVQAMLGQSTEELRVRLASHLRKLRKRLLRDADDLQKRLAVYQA
The test is described as above. Here is the method:
as §1

The target of test [6] is T6, ApoE4 amino acids 54-164, expressed on yeast (human, UniProt P02649 72-182).
T6 construct: with myc tag, on yeast cells; expression in yeast printed as Low; range counts on the mature protein; also called helix2 + 3 + 4
T6 chain: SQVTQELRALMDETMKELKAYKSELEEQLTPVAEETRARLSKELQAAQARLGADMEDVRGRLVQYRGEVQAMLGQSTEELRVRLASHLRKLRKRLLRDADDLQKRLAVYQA
The description is as above. How it is done: as §1

Test [7] deals with T7, ApoE4 amino acids 24-164, expressed on yeast (human, UniProt P02649 42-182).
T7 construct: with myc tag, on yeast cells; range counts on the mature protein; also called helix1 + 2 + 3 + 4
T7 chain: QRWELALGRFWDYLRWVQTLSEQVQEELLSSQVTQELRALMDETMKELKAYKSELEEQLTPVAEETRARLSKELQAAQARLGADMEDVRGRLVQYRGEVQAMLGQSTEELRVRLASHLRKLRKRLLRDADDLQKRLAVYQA
The description is as above. Here is the method: as §1

Test [8] has as its target T8, recombinant alipidated human ApoE3 (human, UniProt P02649 19-317).
T8 construct: mature; full length recombinant protein made in E. coli or bought
The test can be described thus: direct ELISA on coated recombinant alipidated ApoE (0.5 ug/ml). Here is the method: (§2) ELISA dose response curves were generated for several anti-ApoE antibodies. Briefly, plates were coated overnight with full length recombinant alipidated ApoE2, ApoE3, or ApoE4 (0.5 μg/ml). The following days, plates were washed, blocked and then incubated with an anti-ApoE antibody. A goat, anti-mouse IgG-HRP antibody was used for secondary detection. Recombinant alipidated ApoE was either expressed solubly in E. coli and then purified, or purchased from a commercial supplier.

Test [9] concerns the target T9, recombinant alipidated human ApoE2 (human, UniProt P02649 19-317).
T9 construct: mature; full length recombinant protein made in E. coli or bought
Described as above. Here is the method: as §2

In test [10] the target is T1, recombinant alipidated human ApoE4. The description is as above. Here is the method:
as §2

For test [11], the target named is T10, murine ApoE (mouse, UniProt P08226 19-311).
T10 sequence (looked up): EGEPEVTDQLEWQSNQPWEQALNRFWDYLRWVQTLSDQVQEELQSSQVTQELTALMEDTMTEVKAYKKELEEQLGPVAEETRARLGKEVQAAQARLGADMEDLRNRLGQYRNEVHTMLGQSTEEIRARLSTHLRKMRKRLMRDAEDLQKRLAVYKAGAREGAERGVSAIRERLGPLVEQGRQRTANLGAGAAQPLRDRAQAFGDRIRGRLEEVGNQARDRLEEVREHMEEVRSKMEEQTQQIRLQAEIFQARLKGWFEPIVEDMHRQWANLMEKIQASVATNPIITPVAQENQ
The experiment in a line: not described.

T1 sequence (P02649 19-317 C130R): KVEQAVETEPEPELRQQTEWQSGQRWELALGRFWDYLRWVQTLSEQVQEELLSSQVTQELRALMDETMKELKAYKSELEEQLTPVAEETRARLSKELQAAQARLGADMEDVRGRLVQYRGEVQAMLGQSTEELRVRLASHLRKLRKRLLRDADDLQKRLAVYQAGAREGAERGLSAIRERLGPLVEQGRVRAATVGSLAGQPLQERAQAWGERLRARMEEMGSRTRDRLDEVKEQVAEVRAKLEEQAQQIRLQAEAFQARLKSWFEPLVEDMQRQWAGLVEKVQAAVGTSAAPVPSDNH
T8 sequence (P02649 19-317): as the sequence (P02649 19-317 C130R) above, with R112C counted along it
T9 sequence (P02649 19-317 R176C): as the sequence (P02649 19-317 C130R) above, with R112C, R158C counted along it

B1: HJ1526 (antibody, V domains shown)
VH: QVQLQQPGTALVKPGASVKLSCKSSGYTFTDYWVHWVKQRPGQGLEWIGNINPRNGGINYNENFKGKAILTVDRSFSIAYMQLNSLTSEDSAVYYCARPGATVVHRTPWFAHWGQGTLVTVSA
VL: EIVLTQSPALMAASPGEKVTITCSVSSSISSSNLHWFQQKSETSPKPWIFGTSYLASGVPVRFSGSGSGTSYSLTISSMEAEDAATYYCQQWNSYPLTFGAGTKLELR
notes: murine monoclonal antibody from hybridoma
On to B1, for which the Kd in test [1] came out at 670000 pM. In addition, the dissociation rate constant (koff) in [1] stood at 0.00528 s⁻¹. The kon in test [1] was 7880 M⁻¹ s⁻¹. Besides, the binding result in [2], in test [3], in [4], in test [5], in test [6] and in test [7] was “binds” throughout. The EC50 is 50 pM in test [8], 30 pM in test [9] and 40 pM in [10].

B2: HJ155 (antibody, V domains shown)
VH: RVQLQQSGPGLVKPGASVKISCKASGYTFTDYYINWVRQRPGQGLEWIGWIFPGSGITYYNEKFKGKATLTVDRSSSTAYMLLSSLTSEDSAVYFCARYAYGSPFAYWGQGTLVTVSA
VL: DVLMTQTPLSLPVSLGDQASISCRSSQSIVHSNGNTYLEWYLQKPGQSPKLLIYKVSNRFSGVPDRFSGSGSGTDFTLKISRVEAEDLGVYYCFQGSHVPYTFGGGTKLEIKR
notes: murine monoclonal antibody from hybridoma; also called HJ155B (biotinylated)
Take B2: the binding result in test [2] is reported as “binds”; in [5], “binds”; in test [6] it was “binds”; in test [7] it was “binds”; in test [11] it was “no binding”. The EC50 in test [8] is 780 pM; in test [10], 1100 pM.
